A short description of the series: soluble on expression in E. coli; label from the status in PepcDB or PDB records.
Turning to “MGSDKIHHHHHHMMRVEHLAYQFSRNGQPFFKDVSFQLKSPGVNFLIGQNGAGKTTLADIITGLRPAQGELDLPKAAIYLNQQLPLLSSIRVRDVAQLVLGIEHGRLRLTTEQLQQLIDTQAYQFLAPLWDQHYGQLSGGQRKLVQLLLFLQVDRELIVLDEPTAAVDRENVQLLFQVMQAHPERTYLMITHDVRDLHAFTDYQVLWLNDRQVTTLSKRTFEAASAQADFVALFKTQ”, the “soluble on expression in E. coli” value was “not soluble”.

As for “MGSDKIHHHHHHMEKRLDYITDLMALGPTANARTIQRRQTAHRLAIAEAWQVKPGEKILEIGCGQGDLSAVLADQVGSSGHVTGIDIASPDYGAPLTLGQAWNHLLAGPLGDRLTVHFNTNLSDDLGPIADQHFDRVVLAHSLWYFASANALALLFKNMAAVCDHVDVAEWSMQPTALDQIGHLQAAMIQGLLYAIAPSDVANIRTLITPDTLAQIAHDNTWTYTAGTIVEDPTLDDAHWEIATTNALLTELKLSTDLRDRVKPLLEAMSHNGTASLATFTGRITF”, the “soluble on expression in E. coli” value is “not soluble”.

Consider “MYSGFTREKSDLRTEDVEITKEPFTLLIMGIEDYATDGQNGRTDSLMFATVNPKTQKISLMSIPRDSRVPIVGKNKEDKINAAHAYGGEEMAIKTVEGFLKVPVDHYVKIDFQGFKGIVDAVGGVTVDVPFDFWERSDVDYYKKIQFKQGQQELNGEEALAYVRMRKQDPNGDYGRAARQRQLLAAVAQKLNSTSTVFKIKDLTSVVGKYIKTDIPISDGLALYKKLSGFDPSTIQTLKLEGEDKKIGGIYYFLPDPNGVEAVRNEIKKELGEKVTTQENSTTKTESTPSSNSNSNEKAKKETNRNQNKTPTDPPPSTNAHAEWIMRNQQLEHHHHHH”, for which the “soluble on expression in E. coli” value was “soluble”.

For “MSLDEVIIGVCWPFSVNRDGMADGLHLALDEINTRRLAGPYTIRLVERDDEFDSKKHKNIAREFADRADMSAVLGYYDDGPSIRASSIYESSRLLHLMIGANNTDMTSHGFNYINRTILSSDRIALKLAKLTTDLGYRKIVVLWEEDAYGEDLAYQYQVGLDQLNAQVVYQWSYSRKNVDFRLLVNDLKIVDADMIFFSGLEPIAGDFLRMARKVGLKTPVIGAFSNTPEMRAHAGAVGFEGAIMFDFYNPCSQTPENRLFVNKFFSRYGRYPDAWAAQSYDALHILAKAIKFTGSRNPLDLSYAIRYADAFNGANGRYKFDRAGNLEDKPIYLYKIQNGVPVLLEEGHHHHHH”, the “soluble on expression in E. coli” value is on record as “soluble”.

In the case of “FQDVTNTPVEGMKPYTALQLEGRDIYIREGCVGCHSQMIRPFRAETERYGHYSVAGESVWDHPFLWGSKRTGPDLARVGSRYSDDWHRAHLFNPRNVVPESKMPAYPWLVENKLDGKDIEKKLEVMRTLGVPYTDEDIKGAKDSLKGKTEMDAVVAYLQVLGTSIK”, the “soluble on expression in E. coli” value is given as “not soluble”.

Turning to “MLPDADSKDQLVTIIQSVKPPTVPPHRSHDPANNLKRTDPYQFGSRYLEEGDDVFEFNAWDHVEPDDEFKAFAEVQYAKQRESPVSDFDKQRFNKDPAKWWNLFYKNNTSNFFKDRKWLRQEFPVLAEVTQKGAGRKVVLEVGAGAGNTAFPLITHNKNEELMVHACDFSKTAVQVMRESEHYNPKFISADVWDVTAVPDEENNGLPPGLTEGSVDVVILIFIFSALAPSQWDQAIRNVYRVLKPGGLVLFRDYGRGDLAQVRFKKGRYMDENFYVRGDGTRVYFFEKEQLEKMWGTWTPEKGLQMAEDNSIVAESEGAFDVEKIGVDRRLIVNRQRKLKMYRCWIQAHYRKRETPAAVEAEKADS”, the “soluble on expression in E. coli” value is “not soluble”.

As for “MGSDKIHHHHHHMRSHGGDVYKVSPNYDRITDMSSNVNPFLDLGKYSLYPEISYTDIEEKLRVYTKSTNMGIVIGPGLTHLIYKYFEFYQVKKPIIAMPNFSEYKGIAEDRHLRFSAIPSYIIEKDPLILKNFDHDALFITSPSNPFGELFPESTLETVFEIEEKRGRRVFLDGAFMDFVPNYAESIVQSSRSYFNVTIGRSLTKILAIPSLRAGYLIMERHEADLFRKAMEPWSICQPAIDFIRSIDINEVAKNSVALVNGEREYLISELKARGIKVIGNPSANYIVISMPRTDEFYNFMLSKGILVRLLDDYDYVGRCLVRLAIKTRSQNNAFLNALDNFMSSSE”, the “soluble on expression in E. coli” value is reported as “not soluble”.

Consider “MDKAIIDIYYCRQCNWMLRSTWLSQELLHTFSEEIDTISLHPDTGGRFEIFCNGQQIWERKKDGGFPEAKVLKQRVRDIIDPERDLGHSDTKLEHHHHHH”, for which the “soluble on expression in E. coli” value is given as “soluble”.

Turning to “MSGRVGDLSPRQKEALAKFRENVQDVLPALPNPDDYFLLRWLRARSFDLQKSEAMLRKHVEFRKQKDIDNIISWQPPEVIQQYLSGGMCGYDLDGCPVWYDIIGPLDAKGLLFSASKQDLLRTKMRECELLLQECAHQTTKLGRKVETITIIYDCEGLGLKHLWKPAVEAYGEFLCMFEENYPETLKRLFVVKAPKLFPVAYNLIKPFLSEDTRKKIMVLGANWKEVLLKHISPDQVPVEYGGTMTDPDGNPKCKSKINYGGDIPRKYYVRDQVKQQYEHSVQISRGSSHQVEYEILFPGCVLRWQFMSDGADVGFGIFLKTKMGERQRAGEMTEVLPNQRYNSHLVPEDGTLTCSDPGIYVLRFDNTYSFIHAKKVNFTVEVLLPDKASEEKMKQLGAGTPK”, the “soluble on expression in E. coli” value is “soluble”.

On to “MFDTKIAVILRDDLAVWQKLNVTAFLMSGIVAQTGEIIGEPYRDGAGNVYNPLSIQPIVVMATDQEALRKIHQRSLERDITTSLYIEEMFATGHDAANRQVFSHFSPDTAKVVGMALRADRKIVDKITKGAKLHA”, for which the “soluble on expression in E. coli” value was “soluble”.

For “MGSDKIHHHHHHMMSDEKNLGVSQKLVSPSRSTSSCSSKQGSRQDSWEVVEGLRGEMNYTQEPPVQKGFLLKKRKWPLKGWHKRFFYLDKGILKYAKSQTDIEREKLHGCIDVGLSVMSVKKSSKCIDLDTEEHIYHLKVKSEEVFDEWVSKLRHHRMYRQNEIAMFPHEVNHFFSGSTITDSSSGVFDSISSRKRSSISKQNLFQTGSNVSFSCGGETRVPLWLQSSEDMEKCSKDLAHCHAYLVEMSQLLQSMDVLHRTYSAPAINAIQGGSFESPKKEKRSHRRWRSRAIGKDAKGTLQVPKPFSGPVRLHSSNPNLSTLDFGEEKNYSDGSETSSEFSKMQEDLCHIAHKVYFTLRSAFNIMSAEREKLKQLMEQDASSSPSAQVIGLKNALSSALAQNTDLKERLRRIHAESLLLDSPAVAKSGDNLAEENSRDENRALVHQLSNESRLSITDSLSEFFDAQEVLLSPSSSENEISDDDSYVSDISDNLSLDNLSNDLDNERQTLGPVLDSGREAKSRRRTCLPAPCPSSSNISLWNILRNNIGKDLSKVAMPVELNEPLNTLQRLCEELEYSELLDKAAQIPSPLERMVYVAAFAISAYASSYYRAGSKPFNPVLGETYECIREDKGFQFFSEQVSHHPPISACHAESRNFVFWQDVRWKNKFWGKSMEIVPIGTTHVTLPVFGDHFEWNKVTSCIHNILSGQRWIEHYGEIVIKNLHDDSCYCKVNFIKAKYWSTNAHEIEGTVFDRSGKAVHRLFGKWHESIYCGGGSSSACVWRANPMPKGYEQYYSFTQFALELNEMDPSSKSLLPPTDTRFRPDQRFLEEGNLEEAEIQKQRIEQLQRERRRVLEENHVEHQPRFFRKSDDDSWVSNGTYLELRKDLGFSKLDHPVLW”, the “soluble on expression in E. coli” value is “not soluble”.

For “GLLAIFIVFAISWGALVEITPLIFQKQTTESVENLRVYTPLEMEGRDIYIREGCNVCHSQMVRPFRSETERYGHYSVAGESVWEHPFLWGSKRTGPDLARVGGRYSDEWHRVHLLDPRELVPESNMPGFPWLAENVLDGKLTQKKLEVFRDQFGVPYEDETIANAAKEVEGKTEMDAIIAYLQSLGH”, the “soluble on expression in E. coli” value is on record as “not soluble”.

“MGSDKIHHHHHHMTKARKVLVSALCFTALIGEAAVGREQVVLKPSGQWNINYADESCQLARTFGVGDQKTLVQFERFGPENGFALMIVSPLLKFQENFRAVPNRMLHPTKRQYLDTVFQFLPGGEPYKQPGIPAMDAASRQPTLMAFLSLEGPRKDAAPTATGTASASEDRKLTNEERLALEKATNALLVEQPFNDPIRFELGSLAQPFATLAACTDDLVRSWGLQTDPEHAAVNPPKPIGSPSEWFDDKKLAERVWSKRENAIIYFRMIVSDKGAPESCVIQDSSQTTELRDLSCRALMGKARFTPGTNAAGQSVRSVYRGAVRYFTSRN”: the “soluble on expression in E. coli” value is recorded as “not soluble”.

In the case of “MSLLANLPPLVTVFGGSGFVGRHVVRMLAKRGYRIRVAVRRPDLAGFLQPLGNVGQISFAQANLRYRDSIIKAVEDADHVVNCVGILAESGRNTFDAVQEFGAKAIAEAARDTGATLTHISAIGADANSQTGYGRTKGRAEAAIHSVLPGAVILRPSIIFGPEDDFFNKFAKMARNLPFLPLIGGGKTKFQPVYVEDVAEAVARSVDGKLKPGAIYELGGPDVMTFRDCLEAVLAATYRERSFVNLPFGVASMIGKLASLVPLITPPLTPDQVTMLKKDNVVSAEAEKKGLTLEGIGITPVRVASVLPSYMVQYRQHGQFSNAGKAAEGHHHHHH”, the “soluble on expression in E. coli” value is reported as “soluble”.

As to “AVKEMVYRTRLANGLTVALLPKKEFKEVYGSVTVQFGSVDTFVTEVDGDVKQYPGGIAHFLEHKLFEREDSSDLMSAFTSLGADSNAFTSFTKTNYLFSATDYFLENLDLLDELVTSAHFTEASILTEQDIIQQEREMYQDDPDSCLFFSTLANLYPGTPLATDIVGSEESISQINLTNLQENFTKFYKPVNMSLFLVGNFDVERVQDYFESKELKDSDFQEVAR”, the “soluble on expression in E. coli” value is recorded as “not soluble”.

Take “MSLRVIDGGVTAPKGFKANGYKEGKFGVAIIISEKDAVGAGTFTTNKVVAHPVVLSRELIKNRDKFRAIVANSGNANCFTKDGMEDAKEMQRLVAELFNINEDEVLVASTGVIGRKMDMNIIKDRINKVYNLIKEGNSSINAAKAIMTTDTKPKEIAVEFEVNGKTVRVGGIAKGAGMIAPNMLHATMLCFITTDIEIDKESLTNILQKVVDKTFNNISVDGDTSTNDTVFVLANGLSGVNYEECGEEFENALLYVCRELAKMIVKDGEGATKFMEVVVKGAKTEEDAVKASKAIVNSLLVKTAVFGGDPNWGRIVAAVGYSGADFNPEVVDVILSNYKDEVYLVKDGIPLADEGTEELKKAEEIMKSDEIKIVVDLKMGEFENVCYGCDLSYEYVRINAEYTTEGHHHHHH”: the “soluble on expression in E. coli” value is given as “soluble”.

In the case of “MSIRRSDPLAQVSDFDIRLLRIFKSVVEAGGFSAAESALGIGRSAISQQMSDLEQRLGLRLCQRGRAGFSLTDEGREVYQSSLQLLSALESFRTEVNGLHQNLRGELNIGLTDNLVTLPHMRITHALSRLKERGPGVHINIRMIAPAEVEQGVLDGGLHVGVVPQASALPGLEYHSLYSERSLLYCAVGHPLFYAENTMLDDQRLALQEAVAPTFRLPNDIQEHYKALTCTASASDREGIAFLILTGRYIGYLPDHYANAWVQEGRLRALKPDAKFYDLNLVTVTRKGRRPHLVLEGFLEALAATR”, the “soluble on expression in E. coli” value is given as “not soluble”.

Regarding “MNTVSPAKKKVIIIGAGIAGLKAASTLHQNGIQDCLVLEARDRVGGRLQTVTGYQGRKYDIGASWHHDTLTNPLFLEEAQLSLNDGRTRFVFDDDNFIYIDEERGRVDHDKELLLEIVDNEMSKFAELEFHQHLGVSDCSFFQLVMKYLLQRRQFLTNDQIRYLPQLCRYLELWHGLDWKLLSAKDTYFGHQGRNAFALNYDSVVQRIAQSFPQNWLKLSCEVKSITREPSKNVTVNCEDGTVYNADYVIITVPQSVLNLSVQPEKNLRGRIEFQPPLKPVIQDAFDKIHFGALGKVIFEFEECCWSNESSKIVTLANSTNEFVEIVRNAENLDELDSMLEREDSQKHTSVTCWSQPLFFVNLSKSTGVASFMMLMQAPLTNHIESIREDKERLFSFFQPVLNKIMKCLDSEDVIDGMRPIENIANANKPVLRNIIVSNWTRDPYSRGAYSACFPGDDPVDMVVAMSNGQDSRIRFAGEHTIMDGAGCAYGAWESGRREATRISDLLKLEHHHHHH”, the “soluble on expression in E. coli” value is reported as “soluble”.

The values above are taken from the DeepSol protein solubility set.
